Measured values taken from patent publication US20010016194A1, “COMPOUNDS THAT INHIBIT THE BINDING OF RAF-1 OR 14-3-3 PROTEINS TO THE BETA CHAIN OF IL-2 RECEPTOR, AND PHARMACEUTICAL COMPOSITIONS CONTAINING SAME” (priority 1999, published 2001).

Target: (His)6-Raf-1 protein (UniProt P04049)
Test: totally cell-free pull-down, anti-Raf-1 immunoblot, densitometry

% binding to Raf-1 proteins (of the positive control): 0 to 10%
B1: FLAG-HMK-IL-2Rβ chain containing only the proline rich C-terminal (CT+) (receptor, not shown: small tags and cut ends)
chain: QPLSGEDDAYCTFPSRDDLLLFSPSLLGGPSPPSTAPGGSGAGEERMPPSLQERVPRDWDPQPLGPPTPGVPDLVDFQPPPELVLREAGEEVPDAGPREGVSFPWSRPPGQGEFRALNARLPLNTDAYLSLQELQGQDPTHLV
